Laboratory results as given in the nanobody polyreactivity screen of Harvey et al. (2022).

Experiment: yeast display, Sf9 membrane polyspecificity reagent, FACS + sequencing; frameworks hold sequencing errors
Method in brief: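 A synthetic nanobody library was expressed on Saccharomyces cerevisiae BJ5465 by galactose induction for 36–48 hours. The library was stained for 1 hour at 4 °C with 10% biotinylated, detergent-solubilized Sf9 membrane reagent and enriched with streptavidin microbeads before FACS. Low and high (top ~1%) gates were set on anti-HA fluorescence for expression and streptavidin fluorescence for reagent binding, and each polyreactivity label reflects the gate of origin.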

Row | Sequence | polyreactivity (PSR sort gate)
1 | QVQLVESGGGLVQAGGSLRLSCAASGSTFYSYAMGWYRQAPGKERELVAAISSSSGSTYYADSVKGRFTISRDNAKNTVYLQMNSLKPEDTAVYYCNRGRRYSHKYDYWGQGTQVTVSS | high polyreactivity
2 | QVQLVESGGGLVQAGGSLRLSCAASGSTFYSYAMGWYRQAPGKERELVADIDWSGGSTYYADSVKGRFTISRDNAKNTVYLQMNSLKPEDTAVYYCNAERGATGYYVTGDDYWGQGTQVTVSS | low polyreactivity
3 | QVQLVESGGGLVQAGGSLRLSCAASGSTFYSYTMGWYRQAPGKERELVAAISRSAGSTYYADSVKGRFTISRDHAKNTVYLQMNSLKPEVTAVYYCAATLGRTYYSRWYGMDYWGQGTQVTVSS | high polyreactivity
4 | QVQLVESGGGLVQAGGSLRLSCAASGSTFYTNAMGWYRPAPGKVRELVAAISSSGDSTYYADSVKGRFTISRDNAKNTVYLQMKSLKPDDTAVYYCNADLRSYNGFRYYYWGQGTKVTVSS | low polyreactivity
5 | QVQLVESGGGLVQAGGSLRLSCAASGSTFYTNAMGWYRQAPGKDRELVAVITSRGGGTYYADSVKGRFTISRDYAKNTVYLQMNRLKPEDTSVYYCAAYPLVSWGRHGTKGDYWGQGTQVTVSS | low polyreactivity
6 | QVQLVESGGGLVQAGGSLRLSCAASGSTFYTNAMGWYRQAPGKERELFAAIRQSGGTTHYADSVKGRFTISRDNAKNTVYLLMNSLKPEDTAVYYCAAVSGGYSRRYRYGYWGQGTQVTVSS | high polyreactivity
7 | QVQLVESGGGLVQAGGSLRLSCAASGSTFYTNAMGWYRQAPGKERELVAAITSSVGSTHYADSVKGRFTISRDNAKNTVYIQMNSLKPEDTAVYYCAATFGYGRYGYWGQGTQVTVSS | low polyreactivity
8 | QVQLVESGGGLVQAGGSLRLSCAASGSTFYTNAMGWYRQAPGKERELVAASNYSGGSTYYADSVKGRFTISRDNAKNTVYLQMNSLKPEDTAVYYCATDLHWLVTKYGYWGQGTQVTVSS | low polyreactivity
9 | QVQLVESGGGLVQAGGSLRLSCAASGSTFYTNAMGWYRQAPGKERELVAVITYRGGSTYYADSVKGRFTISRDNAKNTVYLQMNSLKPEDTAVYYCNARGTVPWYGYDYWGQGTQVTVSS | high polyreactivity
10 | QVQLVESGGGLVQAGGSLRLSCAASGSTFYTNDMGWYRQAPGKERELVAAITSAGNTNYADSVKGSFTISRDNAKNTVYLQMNSLKPEDTAVYYYYYYQYDYWGQGTQVTVSS | low polyreactivity
11 | QVQLVESGGGLVQAGGSLRLSCAASGSTFYTYAMGWYRQAPGKERELVAAINRSGGTTYYADSVKGRFTISRDNAKNTVYLQMNSLNPEDTAVYYCARRRYGYDYWGQGTQVTVSS | high polyreactivity
12 | QVQLVESGGGLVQAGGSLRLSCAASGSTFYTYAMGWYRQAPGKERELVAAISNRGGSTRYADSVKGRFTISRDTAKNTVYLQMNSLKPEDTAVYYCAARVTQTGYYWGQGTQVTVSS | high polyreactivity
13 | QVQLVESGGGLVQAGGSLRLSCAASGSTFYTYAMGWYRQAPGKERELVAAITRGGGRTYYADSVKGRFTISRDNAKNTVYLQMNSLKPEDTAVYYCAATVGYGHSYAGWYWVDYWGQGTQVTVSS | high polyreactivity
14 | QVQLVESGGGLVQAGGSLRLSCAASGSTFYVNAMGWYRQAPGKERELVAAISWTDDSTYYADSVKGRFTISRDNAKNTVYLQMNSLKPEDTAVYYCAAEQYRYYEVEYWGQGTQVTVSS | high polyreactivity
15 | QVQLVESGGGLVQAGGSLRLSCAASGSTFYVNDMGWYRQAPGKERELVAAIDWTGGTTYYADSVKGRFTISRDNAKNTVYLQMNSLKPEDTAVYYCAVDDSTVDYDYWGQGTQVTVSS | low polyreactivity
16 | QVQLVESGGGLVQAGGSLRLSCAASGSTFYVYAMGWYRQAPGKERELVAAIDDSGDRTYYADSVKGRFTISRDNAKNTVYLQMNSLKPEDTAVYYCAAEYDSWEYDYWGQGTQVTVSS | low polyreactivity
17 | QVQLVESGGGLVQAGGSLRLSCAASGSTFYVYAMGWYRQAPGKERELVASITRGGGTYADSVKGRFTISRDNAKNTVYLQMNSQKPEDTAVYYCNARWQRSTGGRQRYDYWGQGTQVSVSS | high polyreactivity
18 | QVQLVESGGGLVQAGGSLRLSCAASGSTFYYNAMGWYRQAPGKEREFVAANSSRGGSTYYADSVKGRFTISRDNAKNTVYLQMNSLKPEDTAVYYCAADYYVWTPIGVRQYDYWGHGTQVTVSS | high polyreactivity
19 | QVQLVESGGGLVQAGGSLRLSCAASGSTFYYNAMGWYRQAPGKERELVAAISKRGGTTSYADSVKGRFTISRDNAKNTVYLQMNSLKPEDTADYYCADQTYLRQYYRYYWGQGTQVTVSS | high polyreactivity
20 | QVQLVESGGGLVQAGGSLRLSCAASGSTFYYNAMGWYRQAPGKERELVARISRAGASTYYAVAVKGRFTISRDNAKNTVYLPMNSLTPEDTAGYYCAARKKKYGYDNWGQATQVTVSS | high polyreactivity
21 | QVQLVESGGGLVQAGGSLRLSCAASGSTFYYNAMGWYRQAPGKERELVARISRSGGSTYADSVKGRFTISRDNAKNTVYLQMNSLKPEDTAVYYCNADAYGTPEFTSYAVRYDYWGQGTQVNVSS | low polyreactivity
22 | QVQLVESGGGLVQAGGSLRLSCAASGSTFYYNAMGWYRQAPGKERELVAVITLNGGRTSYADSVKGRFTISRDNAKNTVYLQMNSLKPEDTAVYYCAADRYRGYGYWGQGTQVTVSS | low polyreactivity

Row | Sequence | polyreactivity (PSR sort gate)
23 | QVQLVESGGGLVQAGGSLRLSCAASGSTFYYNAMGWYRQSPGKERELVARISRSGGSTYADSVKRRFTISRDNAKNTVYLQMNSLKPEDTAVYYCNAEAYGTPEFTSYAVRYDYWGQGTQVTVSS | low polyreactivity
24 | QVQLVESGGGLVQAGGSLRLSCAASGSTFYYNGMGWYRQAPGKERELVARITRTGGSTYYADSVKGRFTISRDNAKNTVYLQMNSLKPEDTAVYYCNADYYSRTKRKYRYGYWGQGTQVTVSS | high polyreactivity
25 | QVQLVESGGGLVQAGGSLRLSCAASGSTFYYYAMGWYRQAPGKERELVAAIRLIGGTTYYADSVKGRFTISRDNAKNTVYLQMNSLKPEDTAVYYCNARYSTGYTSPSYWGVYKHYDSWGQGTQVTVSS | low polyreactivity
26 | QVQLVESGGGLVQAGGSLRLSCAASGSTFYYYAMGWYRQAPGKERELVAAISATGGSTYYADSVKGRFTISRDNAKNTVYLQMNSLKPEDTAVYYCAAYASRRLRTIRIFGNDYWGQGTQVTVSS | high polyreactivity
27 | QVQLVESGGGLVQAGGSLRLSCAASGSTFYYYAMGWYRQAPGKERELVASINKIVGITDYADSVKGRFTISRDNAKNTGYLQRNSLTPEDTAVYYCAAHGRINPDVPRTDFFASEEDYWGQGTQVTVSS | low polyreactivity
28 | QVQLVESGGGLVQAGGSLRLSCAASGSTFYYYTMGWSRQAPGKERELVAAITYSGGSTRYADSVKGRFTISRDNAKNTVYLQMNSLKPEDTAVYYCAAELTEWTNGFDYWGQGTQVTVSS | high polyreactivity
29 | QVQLVESGGGLVQAGGSLRLSCAASGSTFYYYTMGWYRQAPGKERELVAAITYSGGSTRYADSVKGRFTISRDNAKNTVYLQMNSLKPEDTAVYYCAAGYYWSSFAFRDMDYWGQGTQVTVSS | high polyreactivity
30 | QVQLVESGGGLVQAGGSLRLSCAASGSTFYYYTMGWYRQAPGKERELVAVISRDGRTNYADSVKGRFTISRDNAKNTVYVQMNSLKPEDTAVYYCNADYYWNGVYHYDYWGQGTQVTVSS | low polyreactivity
31 | QVQLVESGGGLVQAGGSLRLSCAASGSTFYYYVMGWYRQAPGKERELVAAISSGGHTNYADSVKGRFTISRDNAKNTVYLQMNSLKPEDTAVYYCAAKPWRGTLLRYGYWGQGTQVTVSS | high polyreactivity
32 | QVQLVESGGGLVQAGGSLRLSCAASGSTIADNAMGWYRQAPGKERELVAAITRSGVRTYYADSVKGRFTISRDTAKNTVYLQMNSLKPEDTAVYYCAKRTYPSRIYDYWGQGTQVTVSS | high polyreactivity
33 | QVQLVESGGGLVQAGGSLRLSCAASGSTIDHNAMGWYRQAPGKERELVATISSSGGSTYYADSVKGRFTISRDNAKNTVYLQMNSLKPEDTAVYYCAVRAYYWRSYPYNYWGQGTQVTVSS | high polyreactivity
34 | QVQLVESGGGLVQAGGSLRLSCAASGSTIFIYAMGWYRQAPGKERELVAAISGSGGTTYYADSVKGRFTISRDNAKITVYLQMNSLKPEDTAVYYCATDITLWYAYSHEGLYIGYYWGQGTQVSVSS | low polyreactivity
35 | QVQLVESGGGLVQAGGSLRLSCAASGSTIFSYAMGWYRQSPGKERELVAAITYRSSRTYYADSVKGRFTISRDNAKNTVYLQMNSLKPEDTAVYYCARGGTAYRYHMDYWGQGTQVTVSS | high polyreactivity
36 | QVQLVESGGGLVQAGGSLRLSCAASGSTIGIYAMGGYRQAPGKERELVAAISSGGSTNYGDSVKGRFTISRDNEKNTVYLQMNSLKQEDTAVYYCAVESVYEYGGYVDSAYDYWGQGTQVTVSS | low polyreactivity
37 | QVQLVESGGGLVQAGGSLRLSCAASGSTIGPYARGWYRQAPGKERELVAAIRYSSVRTYYADSVKGRFTISRDNAKNTVYLQMKSLKPEDTAVYYCNAVFWSYTEWGRSDYWGQGTEVTVSS | low polyreactivity
38 | QVQLVESGGGLVQAGGSLRLSCAASGSTIGRYAMGWYRQAPGKERELVASIRSSGSTYYADSVKGRFTISRDNAKNTVYLQMNSLKPEDTAVYYCNRGVYYGSRYNYWGQGTQVTVSS | high polyreactivity
39 | QVQLVESGGGLVQAGGSLRLSCAASGSTIHYYAMGWYRQAPGKERELVAAISSSGVSTYYADSVKGRFTISRDNAKNTVYLQMNSLKPEDTAVYYCNRASVFHYRWYYYGGQGTQVTVSS | high polyreactivity
40 | QVQLVESGGGLVQAGGSLRLSCAASGSTIIDYDMGWYRQAPGKERELVAGISWSGGRTYYADSVKGRFTISRDNAKNTVYLQMNSLKPEDTEVYYCNKVGRGARTSDYWGQGTQVTVSS | high polyreactivity
41 | QVQLVESGGGLVQAGGSLRLSCAASGSTILRYAMGWYRQAPGKERELVATISRSDDGTYYADYVKGRFTISRDNAKNTVYLQMNSLKPEDTAVYYCGARSWYLYYYWGLGTQVTVSS | low polyreactivity
42 | QVQLVESGGGLVQAGGSLRLSCAASGSTILVNAMGWYRQAPGKERELVAAISRGGSTYYADSVKGRFTISRDNAKNTVYLQMTSLKPEDTAVSYCAARGVYVKYYYWGQGTQVTVSS | high polyreactivity
43 | QVQLVESGGGLVQAGGSLRLSCAASGSTINYYAMGWYRQAPGKERELVAAISRRSGSTYYADSVKGRFTISRDNAKNTVYLQMNSLKPEDTAVYYCAAGYGGTFNWGQGTQVTVSS | high polyreactivity
